Like-named read-outs stand apart in the source and are kept apart here.
How the values were obtained:
[1] = molecular target: T1, recombinant human Siglec15-his protein (human, UniProt Q6ZMC9 20-263); experiment: capture ELISA, captured antibody, biotin-labeled human Siglec15-his in solution
T1 construct: In house made; Biotin-labeled in the capture ELISA
T1 sequence: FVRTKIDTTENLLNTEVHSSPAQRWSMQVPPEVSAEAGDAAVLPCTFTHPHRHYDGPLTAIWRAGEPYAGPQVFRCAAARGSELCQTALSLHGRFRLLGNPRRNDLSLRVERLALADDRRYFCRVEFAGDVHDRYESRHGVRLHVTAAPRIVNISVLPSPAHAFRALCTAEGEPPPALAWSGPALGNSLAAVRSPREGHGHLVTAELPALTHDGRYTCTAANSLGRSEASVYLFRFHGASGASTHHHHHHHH
Procedure: (§1) Briefly, 96-well plates were coated with 100 μl of 2 μg/ml AffiniPure Goat Anti-Human IgG F(ab′)₂ fragment specific (Jackson Immuno Research, Cat #109-005-097) in PBS for 2 hours at 37° C. Plates were washed once with wash buffer (PBS+0.05% v/v Tween-20, PBST) and then blocked with 200 μl blocking buffer (5% w/v non-fatty milk in PBST) overnight at 4° C. Plates were washed 4 times and respectively incubated with 100 μl serially diluted anti-Siglec15 antibodies of the disclosure, the benchmark and hIgG (human immunoglobulin (pH4) for intravenous injection, Hualan Biological Engineering Inc.), 5-fold dilution in 2.5% w/v non-fatty milk in PBST starting at 66.7 nM, for 40 minutes at 37° C., and then washed 4 times again. […] The reaction was stopped in 4 minutes at room temperature with 50 μl/well 1M H₂SO₄, and the absorbance of each well was read on a microplate reader using dual wavelength mode with 450 nm for TMB and 630 nm as the reference wavelength, then the OD (450-630) values were plotted against antibody concentration. Data was analyzed using Graphpad Prism software and EC₅₀ values were reported.

[2] = molecular target: T1, recombinant human Siglec15-his protein; experiment: as above; remark: listed apart in the source
Procedure: as §1

[3] = molecular target: T2, human Siglec15-mouse Fc protein (human); experiment: cell based blocking FACS: human Siglec15-mouse Fc in solution, blocked ligand human LRRC4C on LRRC4C-3F12-1B9 cells
T2 construct: In house made
T2 chain: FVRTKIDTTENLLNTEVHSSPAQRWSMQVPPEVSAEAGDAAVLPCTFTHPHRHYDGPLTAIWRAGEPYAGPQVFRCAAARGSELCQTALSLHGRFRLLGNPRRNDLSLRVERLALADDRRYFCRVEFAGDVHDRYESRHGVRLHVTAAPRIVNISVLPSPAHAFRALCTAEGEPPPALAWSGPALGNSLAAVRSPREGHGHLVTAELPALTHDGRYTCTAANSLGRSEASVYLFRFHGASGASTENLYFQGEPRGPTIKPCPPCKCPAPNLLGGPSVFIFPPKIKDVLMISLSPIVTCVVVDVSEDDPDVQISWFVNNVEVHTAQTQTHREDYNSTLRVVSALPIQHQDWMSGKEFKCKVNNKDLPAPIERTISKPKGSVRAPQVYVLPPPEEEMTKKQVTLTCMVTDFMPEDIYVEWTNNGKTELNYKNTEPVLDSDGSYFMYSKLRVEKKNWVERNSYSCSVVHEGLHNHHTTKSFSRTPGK
Procedure: The activities of the anti-Siglec15 antibodies to block binding of Siglec15 protein to cell surface LRRC4C were evaluated by Flow Cytometry (FACS), using in house made LRRC4C-3F12-1B9 cells. Briefly, HEK-293 cells (ATCC #CRL-1573) were transfected with pCMV-T-P plasmid constructs with the nucleotide sequence encoding human LRRC4C (amino acid residues Met1-Ile640 of uniprot #Q9HCJ2) inserted between EcoRI and XbaI, following the instruction of lipofectamine 3000 transfection reagent (Thermo Fisher). A stable cell named LRRC4C-3F12-1B9 was chosen for subsequent cell based ligand-blocking assay.
Briefly, the anti-Siglec15 antibodies of the disclosure or controls were diluted with human Siglec15-mouse Fc protein (prepared in-house with SEQ ID NO: 26, 8 μg/ml […] in FACS buffer), starting at 66.67 nM with a 5-fold serial dilution, and incubated at room temperature for 40 minutes. Then, LRRC4C-3F12-1B9 cells were harvested from cell culture flasks, washed twice and re-suspended in PBS containing 2% v/v Fetal Bovine Serum (FACS buffer). Then, 1×10⁵ cells per well in 96 well-plates were incubated in 100 μL of the antibody/Siglec15-mouse Fc mixtures for 40 minutes at 4° C. […] Cells were washed twice and re-suspended in FACS buffer. Fluorescence was measured using a Becton Dickinson FACS Canto II-HTS equipment. Data was analyzed using Graphpad Prism software and IC₅₀ values were reported.

[4] = molecular target: T3, human Siglec15-Fc protein (human); experiment: competitive ELISA: biotin-labeled human Siglec15-Fc in solution, competitor coated benchmark; falling curve, table row is labelled EC50
T3 construct: In house made; also called recombinant human Siglec15 protein with human IgG1 Fc at the C-terminus
T3 sequence (chain, as listed by the source limits assumed): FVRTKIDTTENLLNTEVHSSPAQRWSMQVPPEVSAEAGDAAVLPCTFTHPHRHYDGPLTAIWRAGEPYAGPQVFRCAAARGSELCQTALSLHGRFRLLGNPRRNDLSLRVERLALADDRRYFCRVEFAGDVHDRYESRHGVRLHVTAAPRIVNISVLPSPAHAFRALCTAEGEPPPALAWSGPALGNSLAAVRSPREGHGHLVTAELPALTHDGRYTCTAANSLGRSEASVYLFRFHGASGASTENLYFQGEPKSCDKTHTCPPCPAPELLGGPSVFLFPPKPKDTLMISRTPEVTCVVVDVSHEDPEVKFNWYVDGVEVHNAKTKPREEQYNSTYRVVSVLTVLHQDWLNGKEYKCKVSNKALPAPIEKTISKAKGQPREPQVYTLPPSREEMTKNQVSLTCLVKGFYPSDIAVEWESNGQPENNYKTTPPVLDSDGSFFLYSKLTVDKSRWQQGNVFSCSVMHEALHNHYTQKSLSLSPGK
Procedure: The abilities of the anti-Siglec15 antibodies of the disclosure to block benchmark-human Siglec15 binding were measured in a competitive ELISA assay. Briefly, the benchmark was coated on 96-well micro plates at 2 μg/mL in PBS, 100 μl per well, and incubated for 2 hours at 37° C. Then plates were washed once with wash buffer, and blocked with 5% w/v non-fatty milk in PBST overnight at 4° C. The next day, the anti-Siglec15 antibodies of the disclosure or controls were diluted with biotin labeled human Siglec15-Fc protein (prepared in-house with SEQ ID NO: 19, 37 ng/ml in PBST with 2.5% w/v non-fatty milk), starting at 80 nM with a 4-fold serial dilution, and incubated at room temperature for 40 minutes. After plate washing 4 times, the antibody/Siglec15-Fc mixtures were added to benchmark coated plates, 100 μl per well. After incubation at 37° C. for 40 minutes, plates were washed 4 times again using wash buffer. Then the plates were added and incubated with 100 μl/well streptavidin conjugated HRP for 40 minutes at 37° C. […] Finally, TMB was added and the reaction was stopped using 1M H₂SO₄, and the absorbance of each well was read on a microplate reader using dual wavelength mode with 450 nm for TMB and 630 nm as the reference wavelength, then the OD (450-630) values were plotted against antibody concentration. Data was analyzed using Graphpad Prism software and IC₅₀ values were reported.

EC50 [1]: 2.11 nM
EC50 [2]: 2.35 nM
IC50 [3]: 0.639 nM
IC50 [4]: 0.486 nM
B1: anti-Siglec15 benchmark (ch5G12) (antibody, human IgG1, kappa, V domains shown)
VH: QVQLQQPGAELVKPGASVKMSCKASGYTFTSYWITWVIQRPGQGLEWIGDIYCGSDTMHYNEKFKNKATLTVDTSSSTAYMQLSSLTSEDSAVYYCARWWDYGSSYDYFDYWGQGTTLTVSS
VL: DIKMTQSPSSMYASLGERVTITCKASQDINSYLSWFQQKPGKSPKTLIYRANRLVDGVPSRFSGSGSGQDYSLTISSLEYEDMGIYYCLQYDEFPYTFGGGTKLEIKR
notes: ch5G12 (US 20190202912A1); also called BM; Siglec15-ch5G9

Source: US20230106715A1 (BIOSION, published 2023)
